{
  "source": "patent US20250130225A1",
  "about": "“SUBSTRATES FOR IMAGING GLUCOCEREBROSIDASE ACTIVITY” (SIMON FRASER UNIVERSITY, priority 2021, published 2025)",
  "proteins": {"B1": {"name": "purified recombinant GCase (Homo sapiens) (protein)", "chain": "ARPCIPKSFGYSSVVCVCNATYCDSFDPPTFPALGTFSRYESTRSGRRMELSMGPIQANHTGTGLLLTLQPEQKFQKVKGFGGAMTDAAALNILALSPPAQNLLLKSYFSEEGIGYNIIRVPMASCDFSIRTYTYADTPDDFQLHNFSLPEEDTKLKIPLIHRALQLAQRPVSLLASPWTSPTWLKTNGAVNGKGSLKGQPGDIYHQTWARYFVKFLDAYAEHKLQFWAVTAENEPSAGLLSGYPFQCLGFTPEHQRDFIARDLGPTLANSTHHNVRLLMLDDQRLLLPHWAKVVLTDPEAAKYVHGIAVHWYLDFLAPAKATLGETHRLFPNTMLFASEACVGSKFWEQSVRLGSWDRGMQYSHSIITNLLYHVVGWTDWNLALNPEGGPNWVRNFVDSPIIVDITKDTFYKQPMFYHLGHFSKFIPEGSQRVGLVASQKNDLDAVALMHPDGSAVVVVLNRSSKDVPLTIKDPAVGFLETISPGYSIHTYLWRRQ", "notes": "purchased R&D Systems"}},
  "assay_in_all_cases": "In-vitro kinetic assay with purified recombinant GCase",
  "type_in_all_cases": "biochemical",
  "conditions_in_all_cases": "other: 30° C., citrate-phosphate buffer 150 mM, pH 5.4, 0.25% taurodeoxycholate, GCase 2.5 nM",
  "key": {"[1]": {"substrate": "COc1cc(/N=N/c2ccc(C)cc2[N+](=O)[O-])c(C)cc1/N=N/c1ccc(N(C)CCCC(=O)NCCCO[C@@H]2O[C@H](COCc3cn(CCCNC(=O)[C@H](CCCCN(C)C)NC(=O)CCC4=[N+]5C(=Cc6c(C)cc(C)n6[B-]5(F)F)C=C4)nn3)[C@@H](O)[C@H](O)[C@H]2O)cc1", "procedure": "(§1) In-vitro kinetic assay for substrate 1. Continuous assays were performed at 30° C. in citrate-phosphate buffer (150 mM; pH 5.4) containing 0.25% taurodeoxycholate. The concentrations of substrate 1 used in assays were 0.39, 0.78, 1.56, 3.13 6.25, 12.5, 25 and 50 μM. Reactions were initiated by the addition of purified recombinant GCase (2.5 nM, R&D Systems) and the reaction was monitored continuously over 1200 seconds to determine the initial rate of change of fluorescence. Standard curves were constructed using BODIPY® Fl-acid using the same buffer conditions. […] Assays were carried out in triplicate.\nas §1, with “Comparative In-vitro” for “In-vitro”, “substrate 3 and 9b.” for “substrate 1.”, “of substrates 3 and 9b” for “of substrate 1”, “were 0.156, 0.313, 0.625, 1.25, 2.5, 5, 10,” for “were 0.39, 0.78, 1.56, 3.13 6.25, 12.5, 25”, “and 20” for “and 50”, “using TAMRA and BODIPY-576” for “using BODIPY® Fl-acid”"}, "[2]": {"substrate": "COc1cc(/N=N/c2ccc([N+](=O)[O-])cc2)c(OC)cc1/N=N/c1ccc(N(C)CCCC(=O)NCCCO[C@@H]2O[C@H](COCc3cn(CCNC(=O)CCC4=[N+]5C(=Cc6ccc(-c7ccc[nH]7)n6[B-]5(F)F)C=C4)nn3)[C@@H](O)[C@H](O)[C@H]2O)cc1", "procedure": "as §1\nas §1, with “Comparative In-vitro” for “In-vitro”, “substrate 3 and 9b.” for “substrate 1.”, “of substrates 3 and 9b” for “of substrate 1”, “were 0.156, 0.313, 0.625, 1.25, 2.5, 5, 10,” for “were 0.39, 0.78, 1.56, 3.13 6.25, 12.5, 25”, “and 20” for “and 50”, “using TAMRA and BODIPY-576” for “using BODIPY® Fl-acid”"}, "[3]": {"substrate": "COc1cc(/N=N/c2ccc([N+](=O)[O-])cc2)c(OC)cc1/N=N/c1ccc(N(C)CCCC(=O)NCCc2ccc(O[C@@H]3O[C@H](COCCCCn4cc(CNC(=O)[C@H](CCCCN(C)C)NC(=O)c5ccc(-c6c7ccc(=[N+](C)C)cc-7oc7cc(N(C)C)ccc67)c(C(=O)O)c5)nn4)[C@@H](O)[C@H](O)[C@H]3O)cc2)cc1", "procedure": "as §1\nas §1, with “Comparative In-vitro” for “In-vitro”, “substrate 3 and 9b.” for “substrate 1.”, “of substrates 3 and 9b” for “of substrate 1”, “were 0.156, 0.313, 0.625, 1.25, 2.5, 5, 10,” for “were 0.39, 0.78, 1.56, 3.13 6.25, 12.5, 25”, “and 20” for “and 50”, “using TAMRA and BODIPY-576” for “using BODIPY® Fl-acid”"}},
  "data": [
    {"protein": "B1", "values": [
      {"measurement": "kcat/Km", "setting": "[1]", "value": "1300 ± 33", "unit": "M⁻¹ s⁻¹"},
      {"measurement": "kcat/Km", "setting": "[2]", "value": 4350, "unit": "M⁻¹ s⁻¹"},
      {"measurement": "kcat/Km", "setting": "[3]", "value": 22670, "unit": "M⁻¹ s⁻¹"}
    ]}
  ]
}
